Measured values from paper PMC10238197, “Deafness‐Associated ADGRV1 Mutation Impairs USH2A Stability through Improper Phosphorylation of WHRN and WDSUB1 Recruitment” (Advanced Science, 2023).

What was measured:
[1] = target: WHRN with PDZ2 deleted (mouse) (UniProt Q80VW5); test: co-IP; cotransfected HEK293 cells, starved 12 h, lysed in 50 mM Tris-HCl pH 7.4, 150 mM NaCl, 1% Triton, 1% NP-40, 2 mM EDTA; anti-Flag M2 or anti-Myc antibody-conjugated agarose, 4 °C overnight; blots against the tags
[2] = target: T1, WHRN-PDZ2 domain, purified (mouse); test: SPR; BiaCore T200; WHRN-PDZ1 or WHRN-PDZ2 immobilised on a CM5 chip, peptide as analyte in serial dilutions, 120 s association and 120 s dissociation; 10 mM HEPES, 150 mM NaCl, 0.05% Surfactant P20, 0.01% DDM, 0.002% CHS, pH 7.4
T1 sequence (Q80VW5 whole entry, looked up): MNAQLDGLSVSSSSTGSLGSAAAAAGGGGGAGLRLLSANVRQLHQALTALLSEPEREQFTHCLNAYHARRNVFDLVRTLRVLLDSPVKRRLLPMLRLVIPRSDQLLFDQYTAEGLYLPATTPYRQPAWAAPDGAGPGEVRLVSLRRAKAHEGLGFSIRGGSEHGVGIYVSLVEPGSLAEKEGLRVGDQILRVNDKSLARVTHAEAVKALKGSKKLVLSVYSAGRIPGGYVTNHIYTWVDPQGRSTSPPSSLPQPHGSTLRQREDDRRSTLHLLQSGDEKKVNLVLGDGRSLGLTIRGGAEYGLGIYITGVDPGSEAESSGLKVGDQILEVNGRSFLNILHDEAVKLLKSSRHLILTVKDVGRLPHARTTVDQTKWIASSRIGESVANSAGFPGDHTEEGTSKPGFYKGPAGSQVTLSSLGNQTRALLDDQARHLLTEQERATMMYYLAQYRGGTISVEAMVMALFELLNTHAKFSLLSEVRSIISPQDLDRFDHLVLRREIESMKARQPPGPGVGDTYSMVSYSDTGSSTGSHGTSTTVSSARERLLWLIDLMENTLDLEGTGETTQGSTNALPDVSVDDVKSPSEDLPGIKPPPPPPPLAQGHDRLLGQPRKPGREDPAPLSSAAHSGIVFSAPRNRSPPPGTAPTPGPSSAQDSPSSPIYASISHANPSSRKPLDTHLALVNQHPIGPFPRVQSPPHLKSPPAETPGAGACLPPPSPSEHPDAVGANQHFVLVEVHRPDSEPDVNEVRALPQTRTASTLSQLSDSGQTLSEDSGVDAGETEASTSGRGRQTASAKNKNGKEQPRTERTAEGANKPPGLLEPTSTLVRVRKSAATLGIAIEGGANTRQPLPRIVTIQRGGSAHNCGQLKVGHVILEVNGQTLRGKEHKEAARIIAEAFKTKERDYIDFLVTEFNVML

[3] = target: T2, WHRN-PDZ1 domain, purified (mouse, UniProt Q80VW5 137-225); test: ITC; ITC200; purified PDZ protein 50 uM, peptide 1 mM; 20 mM Tris, 200 mM NaCl, 2 mM EDTA, pH 7.4; conditions: both partners purified
T2 construct: first PDZ domain of whirlin (WHRN), mouse; 13C,15N- or 15N-labelled for NMR; Residues up to A222 were assigned; source: purified protein
T2 sequence: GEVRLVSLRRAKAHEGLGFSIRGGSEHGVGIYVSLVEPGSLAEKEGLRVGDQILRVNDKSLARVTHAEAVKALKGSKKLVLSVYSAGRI

[4] = target: T2, WHRN-PDZ1 domain, purified; test: SPR; BiaCore T200; WHRN-PDZ1 or WHRN-PDZ2 immobilised on a CM5 chip, peptide as analyte in serial dilutions, 120 s association and 120 s dissociation; 10 mM HEPES, 150 mM NaCl, 0.05% Surfactant P20, 0.01% DDM, 0.002% CHS, pH 7.4; conditions: both partners purified

ADGRV1 of the PDZ-truncation co-IP (Figure 6b,c) (from UniProt Q8VHN7 4333-6298) (receptor)
decrease of co-immunoprecipitated ADGRV1 against WT WHRN [1]: 85%

RRIPIADTHL [ADGRV1p, 10-residue C-terminal tail peptide of ADGRV1 harboring the PDZ-binding motif]
Kd [2]: 61.2 µM

B1: USH2Ap, 10-residue C-terminal tail peptide of USH2A harboring the PDZ-binding motif (peptide, UniProt Q2QI47 5184-5193, looked up)
peptide: EHTAFTDTHL
notes: also called USH2A C-terminal peptide; source: synthetic peptide
Kd [3]: 28.4 ± 4.2 µM
Kd [4]: 23 ± 2.01 µM
